Consider 83 variants from the RNAGym collection of RNA variant scans (doi:10.1093/molbev/msab373).

B1: Azoarcus group I ribozyme (parent)
chain: GUGCCUUGCGCCGGGAAACCACGCAAGGGAUGGUGUCAAAUUCGGCGAAACCUAAGCGCCCGCCCGGGCGUAUGGCAACGCCGAGCCAAGCUUCGGCGCCUGCGCCGAUGAAGGUGUAGAGACUAGACGGCACCCACCUAAGGCAAACGCUAUGGUGAAGGCAUAGUCCAGGGAGUGGCGAAAGUCACACAAACCGG

The data set covers variants of B1. In words: reverse-splicing fitness (ratio to wild type); higher = more active; in vitro selection; Mg2+ level not given. The procedure, abridged:
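An in vitro group I ribozyme library with randomized positions was T7-transcribed and gel-purified. In triplicate, 10 pmol RNA in EPPS pH 7.5 was reacted with 50 pmoles of a 30-nt RNA substrate for 1 h at 37 °C across several added MgCl2 levels (1–48 mM), then stopped with EDTA. Products were reverse transcribed from a substrate-complementary primer, PCR-amplified and sequenced (HiSeq 4000). Fitness is a variant's read proportion after selection over that before, normalised to wild type.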
Take C82U A111C A120U A145C C169G: the reverse-splicing fitness is 0.00298.

C82U A111C A120U A145C C169U: the reverse-splicing fitness turned out to be 0.0039.

With C82U A111C A120U A145C C169A, the reverse-splicing fitness stood at 0.00236.

With C82U A111C A120U A145C C150U, the reverse-splicing fitness worked out at 0.00868.

Consider C82U A111C A120U A145C C150A, for which the reverse-splicing fitness turned out to be 0.00398.

Turning to C82U A111C A120U A145C C150G, the reverse-splicing fitness is 0.00528.

Take C82U A111C A120G C150U C169U U176A: the reverse-splicing fitness came out at 0.017.

Turning to C82U A111C A120G C150U C169U U176G, the reverse-splicing fitness stood at 0.00513.

For the variant C82U A111C A120G C150U C169U U176C, the reverse-splicing fitness was 0.014.

As to C82U A111C A120U A145G C150A C169A U176C, the reverse-splicing fitness was 0.00409.

Regarding C82U A111C A120U A145G C150A C169A U176A, the reverse-splicing fitness came out at 0.00664.

In the case of C82U A111C A120U A145G C150A C169A U176G, the reverse-splicing fitness amounted to 0.00278.

Regarding C82U A111C A120G C150U C169G U176A, the reverse-splicing fitness worked out at 0.0121.

In the case of C82U A111C A120G C150U C169G U176C, the reverse-splicing fitness turned out to be 0.0161.

Take C82U A111C A120G C150U C169G U176G: the reverse-splicing fitness was determined as 0.00441.

With C82U A111C A120G C169G U176C, the reverse-splicing fitness worked out at 0.0209.

On to C82U A111C A120G C169G U176A, for which the reverse-splicing fitness was 0.0161.

Regarding C82U A111C A120G C169G U176G, the reverse-splicing fitness worked out at 0.00413.

As for C82U A111C A120G C150G, the reverse-splicing fitness is 0.00744.

Take C82U A111C A120G C150U: the reverse-splicing fitness was determined as 0.0115.

For C82U A111C A120U A145C C150A C169U U176G, the reverse-splicing fitness was 0.00207.

As for C82U A111C A120U A145C C150A C169U U176C, the reverse-splicing fitness was 0.00249.

On to C82U A111C A120U A145C C150A C169U U176A, for which the reverse-splicing fitness is 0.00323.

Turning to C82U A111C A120G C150G C169A U176A, the reverse-splicing fitness was 0.0104.

C82U A111C A120G C150G C169A U176C: the reverse-splicing fitness is 0.00939.

Take C82U A111C A120G C150G C169A U176G: the reverse-splicing fitness was 0.0058.

With C82U A111C A120U A145G C150G U176A, the reverse-splicing fitness came to 0.00648.

C82U A111C A120U A145G C150G U176C: the reverse-splicing fitness was found to be 0.00806.

As to C82U A111C A120U A145G C150G U176G, the reverse-splicing fitness was found to be 0.00395.

Turning to C82U A111C A120U A145G, the reverse-splicing fitness is 0.0248.

As for C82U A111C A120U A145C, the reverse-splicing fitness was 0.0226.

Consider C82U A111C A120U A145C C169A U176G, for which the reverse-splicing fitness worked out at 0.0017.

In the case of C82U A111C A120U A145C C169A U176C, the reverse-splicing fitness was found to be 0.00244.

Turning to C82U A111C A120U A145C C169A U176A, the reverse-splicing fitness stood at 0.00241.

For the variant C82U A111C A120U A145G C150U C169A U176A, the reverse-splicing fitness is 0.00691.

For the variant C82U A111C A120U A145G C150U C169A U176G, the reverse-splicing fitness was 0.00262.

As to C82U A111C A120U A145G C150U C169A U176C, the reverse-splicing fitness was 0.00367.

With C82U A111C A120U A145C C150U U176G, the reverse-splicing fitness was found to be 0.0029.

Consider C82U A111C A120U A145C C150U U176A, for which the reverse-splicing fitness came out at 0.00424.

For the variant C82U A111C A120U A145C C150U U176C, the reverse-splicing fitness was 0.00591.

Turning to C82U A111C A120U A145G C150A C169G U176G, the reverse-splicing fitness amounted to 0.00246.

With C82U A111C A120U A145G C150A C169G U176C, the reverse-splicing fitness is 0.00549.

For the variant C82U A111C A120U A145G C150A C169G U176A, the reverse-splicing fitness was found to be 0.00613.

With C82U A111C A120U A145C C169G U176A, the reverse-splicing fitness was determined as 0.00206.

As for C82U A111C A120U A145C C169G U176G, the reverse-splicing fitness is 0.00186.

As to C82U A111C A120U A145C C169G U176C, the reverse-splicing fitness is 0.00215.

As for C82U A111C A120G C150G U176G, the reverse-splicing fitness amounted to 0.00294.

Consider C82U A111C A120G C150G U176C, for which the reverse-splicing fitness was 0.013.

As for C82U A111C A120G C150G U176A, the reverse-splicing fitness was determined as 0.00789.

Turning to C82U A111C A120U A145C C150A C169A U176C, the reverse-splicing fitness stood at 0.00295.

As for C82U A111C A120U A145C C150A C169A U176G, the reverse-splicing fitness was found to be 0.00183.

C82U A111C A120U A145C C150A C169A U176A: the reverse-splicing fitness worked out at 0.00222.

For C82U A111C A120U A145G C150A C169U U176C, the reverse-splicing fitness is 0.00385.

C82U A111C A120U A145G C150A C169U U176A: the reverse-splicing fitness was determined as 0.00566.

For C82U A111C A120U A145G C150A C169U U176G, the reverse-splicing fitness came out at 0.00293.

For C82U A111C A120U A145C C150G C169A U176A, the reverse-splicing fitness turned out to be 0.00289.

For the variant C82U A111C A120U A145C C150G C169A U176G, the reverse-splicing fitness was 0.0024.

With C82U A111C A120U A145C C150G C169A U176C, the reverse-splicing fitness is 0.00245.

Take C82U A111C A120U: the reverse-splicing fitness turned out to be 0.0257.

Take C82U A111C A120U A145C C150U C169G: the reverse-splicing fitness came out at 0.00293.

In the case of C82U A111C A120U A145C C150U C169A, the reverse-splicing fitness came to 0.00253.

For C82U A111C A120U A145C C150U C169U, the reverse-splicing fitness came to 0.00319.

With C82U A111C A120U A145G C150A C169U, the reverse-splicing fitness turned out to be 0.0043.

Take C82U A111C A120U A145G C150A C169A: the reverse-splicing fitness stood at 0.00616.

Consider C82U A111C A120U A145G C150A C169G, for which the reverse-splicing fitness was found to be 0.00517.

Regarding C82U A111C A120U A145C U176A, the reverse-splicing fitness turned out to be 0.00655.

For the variant C82U A111C A120U A145C U176C, the reverse-splicing fitness amounted to 0.00705.

Regarding C82U A111C A120U A145C U176G, the reverse-splicing fitness came to 0.00296.

C82U A111C A120U A145C C150U C169A U176A: the reverse-splicing fitness was 0.00213.

For the variant C82U A111C A120U A145C C150U C169A U176G, the reverse-splicing fitness is 0.00235.

As for C82U A111C A120U A145C C150U C169A U176C, the reverse-splicing fitness amounted to 0.0025.

Consider C82U A111C A120G C169U U176G, for which the reverse-splicing fitness was 0.00376.

Take C82U A111C A120G C169U U176C: the reverse-splicing fitness turned out to be 0.0142.

With C82U A111C A120G C169U U176A, the reverse-splicing fitness worked out at 0.0158.

For C82U A111C A120G C150A C169U U176A, the reverse-splicing fitness came out at 0.0192.

With C82U A111C A120G C150A C169U U176C, the reverse-splicing fitness stood at 0.0146.

Regarding C82U A111C A120G C150A C169U U176G, the reverse-splicing fitness was 0.00544.

With C82U A111C A120U A145G C150G C169G U176G, the reverse-splicing fitness stood at 0.00376.

Take C82U A111C A120U A145G C150G C169G U176A: the reverse-splicing fitness came to 0.00829.

With C82U A111C A120U A145G C150G C169G U176C, the reverse-splicing fitness was 0.00782.

Take C82U A111C A120G C150U U176A: the reverse-splicing fitness worked out at 0.0106.

On to C82U A111C A120G C150U U176C, for which the reverse-splicing fitness was 0.0194.

Regarding C82U A111C A120G C150U U176G, the reverse-splicing fitness was 0.00514.
